Test results published in patent US6514942B1, “Methods and compositions for stimulating T-lymphocytes” (The Board of Regents, The University of Texas System, priority 1995, dated 2003).
“Also recorded” adds a separate entry of the source.

What was measured:
[1] = molecular target: T1, HLA-A2 of T2 cells (Homo sapiens, UniProt P04439, D140Y/D185E/D98H/E176V/E277Q/G131W/G231S/I119V/I121R/I166T/I218V/L300P/L318F/N151K/N90K/P208A/P217A/Q86G/Q94H/R138H/R169H/T345S); assay: Reactivity of BB7.2 mAb with T2 cells after culture with peptide (immunofluorescence, FL1); format: cell-based; conditions: peptide 50 μg/ml, overnight culture
T1 construct: cell surface expression of HLA-A2 is lower (30-40%) than in normal LBL lines transfected with HLA-A2; endogenous in cells; host or cells: T2 (transport deletion mutant) human lymphoblastoid cells, obtained from Dr. Peter Creswell
Experimental: FIG. 5B. Effects of HER-2 peptides on reactivity of BB7.2 mAb with T2 cells. Studies were performed as described in the legend to FIG. 5A.
(§1) mAbs to CD3 (OKT3-FITC), CD4 (OKT4-FITC) and CD8 (OKT8-FITC) were obtained from Ortho Diagnostic (Ortho, Raritan, N.J.), mAb W6/32 (anti-HLA, -A, -B, -C) from Dako (Dako-Dakopatts, Denmark); HLA-A2 reacting mAb BB7.2 and MA2.1 from ATCC. Immunofluorescence studies were performed as described in Example 1.
(§2) To determine whether these peptides and longer analogs affect HLA-A2 conformation as an indication of HLA-A2 binding, the effects of HER-2 peptides on the reactivity of conformationally dependent mAb MA2.1 and BB.7.2 were examined with HLA-A2 of T2 cells. The human cell line T2 has a defect affecting endogenous peptide loading of MHC class I molecules. As a consequence, cell surface expression of HLA-A2 is lower (30-40%) than in normal LBL lines transfected with HLA-A2 (e.g., C1R) but the reactivity of MA2.1 and BB.7.2 mAb is increased when certain HLA-A2 binding peptides are added to the culture medium (Anderson et al., 1993). Although most human MHC class I molecules cannot be induced at the low temperatures used for their murine counterparts because of fundamental structural differences between human and mouse class I (Anderson et al., 1993), the fact that they express few endogenous (mainly signal) peptides (Zweerink et al., 1993) increases the sensitivity of detection of peptide-HLA-A2 interaction.

[2] = molecular target: T1, HLA-A2 of T2 cells; assay: Reactivity of MA2.1 mAb with T2 cells after culture with peptide (immunofluorescence, FL1); format: cell-based; conditions: for FL1 of T2 cells stained with MA2.1 mAb: peptide 50 μg/ml, overnight culture in IMDM-FCS; for reactivity of MA2.1 mAb with HLA-A2: study repeated with peptides dissolved in DMSO
Experimental: FIG. 5A. Effects of HER-2 peptides on reactivity of MA2.1 mAb with T2 cells. Fluorescence analysis and determination of FL1 were performed as described (Stauss et al., 1992). Peptides were added to T2 cells at 50 μg/ml (final concentration). After overnight culture, in IMDM-FCS, cells were washed and the levels of HLA-A2 expression were determined using HLA-A2 specific mAb.
as §1, §2

[3] = molecular target: T2, HLA-A2 on indicator T2 cells (Homo sapiens, UniProt P04439, D140Y/D185E/D98H/E176V/E277Q/G131W/G231S/I119V/I121R/I166T/I218V/L300P/L318F/N151K/N90K/P208A/P217A/Q86G/Q94H/R138H/R169H/T345S); assay: Stabilization of HLA-A2 expression on indicator line T2; format: cell-based; conditions: indicator T2 cells
T2 construct: cell surface expression of HLA-A2 is lower (30-40%) than in normal LBL lines transfected with HLA-A2; endogenous in cells; host or cells: T2 (transport deletion mutant) human lymphoblastoid cells, obtained from Dr. Peter Creswell
Text: Since HER-2 is a self-antigen, during thymic selection, a number of T-cells carrying receptors with high affinity for the HLA-peptide complex are silenced either by elimination ro tolerization. A pre-condition for induction of a high affinity TCR-(MHC+peptide) interactions, is a stable (MHC+peptide) complex. […] However, stabilization of HLA-Class I binding by exogenously added peptide is dependent on introduction of dominant anchors in positions P2 and P9 which are not recognized by TCR.
Peptide D113, […] (SEQ ID NO:17), is the natural nonapeptide […].

[4] = tested on: C1R:A2 cells; assay: Ag specificity of the 41.CD8+ CTL line on peptide-pulsed targets; format: cell-based, human; conditions: peptide-pulsed C1R:A2, E:T 10:1
Experimental: FIG. 2A. Ag specificity of the 41.CD8^+ CTL line. C1R:A2 cells were pre-pulsed with either HER-2 peptides or control MUC-1 peptides before being incubated with effectors. The effector to target ratio was 10:1. C1R:A1 and C1R:A3 targets were pre-pulsed with the same peptides in the same conditions as C1R:A2 cells. Results for C1R:A1 and C1R:A3 show the difference between specific lysis of targets preincubated with peptides and control C1R:A1 and C1R:A3 targets. Specific lysis of control C1R:A1 and C1R:A3 cells was less than 10% at the same E:T ratio. Shown in FIG. 2A are results after 4 hrs' incubation.
(§3) Tumor cells and fibroblasts were labeled with 200 μCi of ^51Cr (Na^51CrO4; Amersham, Arlington Heights, Ill.) for 90 min at 37° C. (Ioannides et al., 1991). Lymphoblastoid cells and HLA-A2 transfectants were labeled overnight in RPMI-FCS, then washed three times and incubated with effector cells in RPMI-FCS in an incubator with 5%. CO2 (Bednarek et al., 1991; Gammon et al., 1992). When peptide recognition was determined, targets were incubated with 25 μM of peptides overnight during ^51Cr labeling or with 10 μM peptide for 2 h at 37° C. in RPMI-FCS then washed three times before being incubated with effector cells. Separate controls for spontaneous and total lysis were made for each peptide-pulsed target (Ioannides et al., 1991; Bednarek et al., 1991; Gammon et al., 1992). After 4-5 h, 100 μl of supernatant was collected and counted. To determine maximum lysis in 20-h assays, plates were left undisturbed in the incubator and the supernatant was collected after overnight incubation. For cold target inhibition studies, C1R:A2 cells were preincubated with HER-2 or control peptides overnight, then washed and admixed with ^51Cr-labeled targets at 2:1 and 6:1 (cold:hot targets) ratios. Percentage lysis was calculated from the formula: 100×[(E−S)/(T−S)], where E is experimental release, S is release in the absence of CTL, and T is release in 2 M HCl.
These cultures were propagated and expanded by periodic cycles of restimulation with peptide-pulsed fresh autologous PBMC as antigen-presenting cells. After the fourth stimulation cells were gradually adapted to growth in RPMI-FCS by replacing 25% of the culture medium every 3 days with RPMI-FCS over a period of 2 weeks. CD3^+CD8^+CD4^− cells were isolated from bulk CTL cultures by positive selection on anti-CD8 mAb-coated culture flasks (AIS Micro CELLector, Applied Immune Sciences, Menlo Park, Calif.) as described (Letessier et al., 1991). Isolated CD8^+ cells were restimulated with HER-2 peptide-pulsed PBMC, either autologous or in some instances allogeneic that matched only HLA-A2 with the responding cells. […]

[5] = tested on: OVA-16 (HLA-A2+, HER-2high) ovarian tumor; assay: Cold target inhibition of OVA-16 lysis by 41.CD8+ CTL with peptide-pulsed C1R:A2 cells; format: cell-based, human; conditions: cold:hot 2:1, E:T 10:1, 4- and 20-h assays
Experimental: (§4) FIG. 4A. Target specificity of the 41.CD8^+ CTL were tested for the ability to lyse 5^1Cr-labeled OVA-16 at an E:T ratio of 10:1. C1R:A2 cells (A2.1) were incubated with synthetic peptides (D125, C43, C85), washed, and used in cold target inhibition studies at a cold:hot ratio of 2:1. Cytotoxicity studies were performed for 5 hr. Results represent the mean of three determinations. The variability between samples was less than 10%. The differences between determination are statistically significant (P<0.03) as determined by Student's t test. Percentage inhibition is indicated in parentheses.
as §4, with “FIG. 4B.” for “FIG. 4A.”, “lyse ^51Cr-labeled” for “lyse 5^1Cr-labeled”, “for 20” for “for 5”
as §3
To confirm that the 41.CD8^+ CTL line recognizes epitopes on HER-2^high tumors contained on peptides used for stimulation, cold target inhibition studies were performed. […]

[6] = tested on: C1R:A2 cells; assay: In vitro induction of peptide-reactive CTL from PBMC, 51Cr release on peptide-pulsed C1R:A2; format: cell-based, human; conditions: PBMC stimulated with the peptide
[7] = tested on: HLA-A2+ PBMC; assay: Proliferation assay (3H-thymidine incorporation, stimulation index); format: cell-based, human; conditions: Donor 20; peptide 50 μg/ml, 5 days
Experimental: Fresh PBMC from healthy volunteers isolated by Ficoll-Hypaque™ were distributed into 96-well round-bottomed plates (Falcon, Becton-Dickinson) at 2×10^5/well in RPMI-FCS. Peptides were added at 50 μg/ml. The studies were performed at least twice using PBMC from the same donor, in quadruplicate. After 5 days, for the last 16 h in culture, wells were pulsed with 1 μCi of [^3H]-thymidine (^3H-Tdr) and counted. Proliferation was determined as ^3H-Tdr incorporation and c.p.m. determined in the samples of PBMC cultured with peptides and were divided by c.p.m. determined same cultures in the absence of peptides, to determine the stimulation index (S.I.).
HER-2 peptides (Table 6) were tested for their ability to stimulate HLA-A2^+ PBMC to proliferate in vitro. PBMC from healthy donors were incubated with HER-2 peptides from the groups:41-56, 392-410 and 968-984 for 5 days. With few exceptions, significant cell proliferation was not observed in all 4 PBMC samples from individual donors of different HLA-types including HLA-A2. […] The exception to these observations was Donor 20.S.I. for D95 was 6.4, for D121 was 4.3, but for the nonamer D119 was only 1.1. Similarly, the S.I. for the longer peptide D96 (41-54) was 2.8 but for the shorter peptide D97 was only 1.5. These differences were statistically significant.

stabilization of HLA-A2 [3]	Sequence	FL1 of T2 cells stained with MA2.1 mAb [2]	Ag specificity of CTL response induced by the peptide [6]	also measured
stabilized HLA-A2 more than C84	ELVSEVSKV [Peptide C81, C85 analog (F→V, RM→KV)]	significantly increased the FL1	–	FL1 of T2 cells stained with BB7.2 mAb [1]: even higher increase in FL1
–	GLTSAPDTRV [Peptide D125, control analog of Muc-1 core peptide (Muc-1:8-17) with introduced HLA-A2 anchors, reference compound]	–	–	recognition by 41.CD8+ CTL line [4]: at a much lesser extent; inhibition of tumor lysis by peptide-pulsed cold targets [5]: inability of C1R:A2 cells alone or pulsed with D125 to mediate the same inhibition
significantly higher improvement	GLYQGCQVV [Peptide D115, HER-2:48-56(48H→G) analog]	increased FL1 even further; also recorded: higher increase in reactivity of MA2.1 mAb with HLA-A2 than D96/D97	less specific CTL than D96/D97	reactivity of MA2.1 mAb with HLA-A2 [2]: unable to increase reactivity
–	LQPEQLQVFETLE [Peptide D95, HER-2:392-404]	–	–	stimulation index (S.I.) [7]: 6.4
–	SLADPAHGV [Peptide D132, control analog of Muc-1 core peptide with introduced P2 anchor, reference compound]	–	–	recognition by 41.CD8+ CTL line [4]: at a much lesser extent
–	TLEEITGYL [Peptide D119, nonapeptide HER-2:402-410]	significant increase in FL1; also recorded: increase the reactivity of MA2.1 mAb	failed to induce peptide specific CTLs; also recorded: failed to induce a sustained Ag specific CTL response	stimulation index (S.I.) [7]: 1.1

Sequence	stabilization of HLA-A2 [3]	FL1 of T2 cells stained with MA2.1 mAb [2]	Ag specificity of CTL response induced by the peptide [6]	also measured
RLLYQGCQVV [Peptide D114, HER-2:47-56(48H→L) analog]	little improvement on stabilization of HLA-A2	increased FL1 even further; also recorded: higher increase in reactivity of MA2.1 mAb with HLA-A2 than D96/D97	lacked Ag specificity	reactivity of MA2.1 mAb with HLA-A2 [2]: unable to increase reactivity
